According to PMC11906750:
Like-named read-outs stand apart in the source and are kept apart here.

How the values were obtained:
Test in all cases: FRET or BRET
[1] = target: HC-Pro^Tu-CFP (turnip mosaic virus)
[2] = target: HC-Pro^Tu-K-CFP (turnip mosaic virus)
[3] = target: HC-Pro^Tu-CFP (turnip mosaic virus); remark: listed apart in the source
[4] = target: HC-Pro^Tu-K-CFP (turnip mosaic virus); remark: listed apart in the source

HC-Pro^Tu-CFP (natural protein)
FRET efficiency [1]: 70%

HC-Pro^Tu-K-CFP (natural protein)
FRET efficiency [2]: 72%

B1: YFP-ATG8a (natural protein)
chain: MAKSSFKISNPLEARMSESSRIREKYPDRIPVIVEKAGQSDVPDIDKKKYLVPADLTVGQFVYVVRKRIKLGAEKAIFVFVKNTLPPTAALMSAIYEEHKDEDGFLYMTYSGENTFG
FRET efficiency [3]: 30%
FRET efficiency [4]: 30%

B2: YFP-HEN1 (enzyme)
chain: MAGGGKHTPTPKAIIHQKFGAKASYTVEEVHDSSQSGCLGLAIPQKGPCLYRCHLQLPEFSVVSNVFKKKKDSEQSAAELALDKLGIRPQNDDLTVDEARDEIVGRIKYIFSDEFLSAEHPLGAHLRAALRRDGERCGSVPVSVIATVDAKINSRCKIINPSVESDPFLAISYVMKAAAKLADYIVASPHGLRRKNAYPSEIVEALATHVSDSLHSREVAAVYIPCIDEEVVELDTLYISSNRHYLDSIAERLGLKDGNQVMISRMFGKASCGSECRLYSEIPKKYLDNSSDASGTSNEDSSHIVKSRNARASYICGQDIHGDAILASVGYRWKSDDLDYDDVTVNSFYRICCGMSPNGIYKISRQAVIAAQLPFAFTTKSNWRGPLPREILGLFCHQHRLAEPILSSSTAPVKSLSDIFRSHKKLKVSGVDDANENLSRQKEDTPGLGHGFRCEVKIFTKSQDLVLECSPRKFYEKENDAIQNASLKALLWFSKFFADLDVDGEQSCDTDDDQDTKSSSPNVFAAPPILQKEHSSESKNTNVLSAEKRVQSITNGSVVSICYSLSLAVDPEYSSDGESPREDNESNEEMESEYSANCESSVELIESNEEIEFEVGTGSMNPHIESEVTQMTVGEYASFRMTPPDAAEALILAVGSDTVRIRSLLSERPCLNYNILLLGVKGPSEERMEAAFFKPPLSKQRVEYALKHIRESSASTLVDFGCGSGSLLDSLLDYPTSLQTIIGVDISPKGLARAAKMLHVKLNKEACNVKSATLYDGSILEFDSRLHDVDIGTCLEVIEHMEEDQACEFGEKVLSLFHPKLLIVSTPNYEFNTILQRSTPETQEENNSEPQLPKFRNHDHKFEWTREQFNQWASKLGKRHNYSVEFSGVGGSGEVEPGFASQIAIFRREASSVENVAESSMQPYKVIWEWKKEDVEKKKTDL
FRET efficiency [3]: 55%
